Measurements published in PMC3348880, “MSMEG_2731, an Uncharacterized Nucleic Acid Binding Protein from Mycobacterium smegmatis, Physically Interacts with RPS1” (PLoS ONE, 2012).

T1: 30S ribosomal protein S1 (RPS1) (Mycobacterium smegmatis, UniProt A0QYY6 1-479)
T1 sequence: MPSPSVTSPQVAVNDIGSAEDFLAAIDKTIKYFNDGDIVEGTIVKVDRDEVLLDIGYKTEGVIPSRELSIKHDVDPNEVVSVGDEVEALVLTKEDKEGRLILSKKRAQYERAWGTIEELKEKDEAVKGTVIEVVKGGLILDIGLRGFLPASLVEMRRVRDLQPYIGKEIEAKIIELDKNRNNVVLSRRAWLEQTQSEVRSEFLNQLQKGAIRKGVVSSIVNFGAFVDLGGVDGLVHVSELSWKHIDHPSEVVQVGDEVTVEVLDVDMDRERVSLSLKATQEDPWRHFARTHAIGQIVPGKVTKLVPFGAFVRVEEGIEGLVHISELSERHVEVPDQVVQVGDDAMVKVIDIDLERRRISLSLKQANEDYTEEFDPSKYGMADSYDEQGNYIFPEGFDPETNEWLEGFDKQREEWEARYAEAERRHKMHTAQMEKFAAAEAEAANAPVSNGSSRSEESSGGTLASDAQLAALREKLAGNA

T2: MSMEG_2731;30S ribosomal protein S1 (RPS1) (Mycobacterium smegmatis;Mycobacterium …, UniProt A0QVX6;A0QYY6 1-454;1-479, |)
T2 sequence 1: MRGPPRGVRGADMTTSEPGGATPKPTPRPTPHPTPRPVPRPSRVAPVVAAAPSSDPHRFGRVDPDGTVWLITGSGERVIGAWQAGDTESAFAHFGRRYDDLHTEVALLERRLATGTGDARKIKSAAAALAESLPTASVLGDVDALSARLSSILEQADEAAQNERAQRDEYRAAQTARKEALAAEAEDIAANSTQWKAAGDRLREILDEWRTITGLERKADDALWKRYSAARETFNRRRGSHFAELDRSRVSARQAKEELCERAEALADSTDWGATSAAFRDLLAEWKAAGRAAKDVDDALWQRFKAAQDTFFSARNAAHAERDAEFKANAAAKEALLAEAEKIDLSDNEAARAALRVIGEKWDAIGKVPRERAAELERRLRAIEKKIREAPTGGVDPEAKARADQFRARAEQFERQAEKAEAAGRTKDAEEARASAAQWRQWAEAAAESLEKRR
T2 sequence 2: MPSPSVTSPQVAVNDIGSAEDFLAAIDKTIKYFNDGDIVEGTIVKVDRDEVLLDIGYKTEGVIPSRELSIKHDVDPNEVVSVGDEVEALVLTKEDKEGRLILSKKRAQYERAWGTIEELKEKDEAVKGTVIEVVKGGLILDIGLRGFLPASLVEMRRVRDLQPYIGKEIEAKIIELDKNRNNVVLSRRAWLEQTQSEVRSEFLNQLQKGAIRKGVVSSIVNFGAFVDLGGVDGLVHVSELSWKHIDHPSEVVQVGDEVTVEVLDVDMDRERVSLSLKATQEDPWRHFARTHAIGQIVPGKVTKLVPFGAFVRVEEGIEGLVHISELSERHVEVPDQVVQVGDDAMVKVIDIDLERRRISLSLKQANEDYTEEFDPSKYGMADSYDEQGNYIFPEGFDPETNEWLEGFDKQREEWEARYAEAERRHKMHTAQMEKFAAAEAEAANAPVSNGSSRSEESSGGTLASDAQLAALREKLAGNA

T3: purified recombinant RPS1 (M. smegmatis, UniProt A0QYY6 1-479)
T3 construct: 30S ribosomal protein S1 (RPS1) of Mycobacterium smegmatis, gene amplified from M. smegmatis genomic DNA; Cloned into pET28a or pGEX-6P-1; also called purified RPS1; ribosomal protein S1; source: E. coli BL21 (DE3), purified
T3 sequence (looked up): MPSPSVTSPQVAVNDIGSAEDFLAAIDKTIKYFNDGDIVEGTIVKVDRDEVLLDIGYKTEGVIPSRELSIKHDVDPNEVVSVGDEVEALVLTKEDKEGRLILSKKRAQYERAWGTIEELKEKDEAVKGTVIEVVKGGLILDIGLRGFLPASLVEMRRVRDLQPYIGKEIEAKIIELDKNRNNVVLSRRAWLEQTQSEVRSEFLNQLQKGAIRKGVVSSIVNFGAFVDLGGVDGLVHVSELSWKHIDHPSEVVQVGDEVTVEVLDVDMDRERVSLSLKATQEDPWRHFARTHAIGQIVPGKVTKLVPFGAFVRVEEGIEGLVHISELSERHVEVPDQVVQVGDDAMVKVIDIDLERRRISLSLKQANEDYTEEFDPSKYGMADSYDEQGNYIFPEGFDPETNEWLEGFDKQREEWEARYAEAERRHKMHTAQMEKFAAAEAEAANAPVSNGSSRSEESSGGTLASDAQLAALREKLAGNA


What was measured:
[1] = target: T1, 30S ribosomal protein S1 (RPS1); experiment: SPR; 2.5 uM RPS1; fast association, complete dissociation; SPR (Biacore T100, SA chip): 25 mM Tris-HCl pH 7.4, 150 mM NaCl, 0.005% Tween 20, 25 C, 30 ul/min; settings: protein: recombinant; Methods name pET28a or pGEX-6P-1; label: 5' biotin (immobilized on SA chip); single strand
[2] = target: T2, MSMEG_2731;30S ribosomal protein S1 …; experiment: SPR; 2.5 uM RPS1 with 1.25, 2.5 or 5 uM MSMEG_2731; maximum response at 1:1; kinetics like RPS1 alone; SPR (Biacore T100, SA chip): 25 mM Tris-HCl pH 7.4, 150 mM NaCl, 0.005% Tween 20, 25 C, 30 ul/min; settings: protein: recombinant;recombinant; Methods name pET28a or pGEX-6P-1; copies: 1;1; label: 5' biotin (immobilized on SA chip); single strand
[3] = target: T3, purified recombinant RPS1; experiment: SPR; Biacore T100, 25°C; mixtures of 2.5 μM RPS1 with 1.25, 2.5 or 5 μM MSMEG_2731 passed over RNA immobilised on an SA chip (100 RU); 25 mM Tris-HCl pH 7.4, 150 mM NaCl, 0.005% Tween 20; settings: both partners purified

stoichiometry N [3]	Binder	binding result [1]	binding result [2]
	CACGUAUCUCGAGGAGCGGAUAUGA (ssRNA, 5' biotin) [RNA 25 nt]	binds	binds
1	MSMEG_2731, N-terminal His-tagged recombinant protein (natural protein, M. smegmatis, UniProt A0QVX6 1-454, looked up, MSMEG_2731, conserved hypothetical alanine and arginine rich protein of Mycobacterium smegmatis, 454 amino acids, three tandem repeats of DUF349; The protein tends to degrade at its N-terminus in vitro; also called full-length MSMEG_2731; recombinant MSMEG_2731; source: E. coli BL21 (DE3), pET28a, purified (Ni-NTA, gel filtration)) MRGPPRGVRGADMTTSEPGGATPKPTPRPTPHPTPRPVPRPSRVAPVVAAAPSSDPHRFGRVDPDGTVWLITGSGERVIGAWQAGDTESAFAHFGRRYDDLHTEVALLERRLATGTGDARKIKSAAAALAESLPTASVLGDVDALSARLSSILEQADEAAQNERAQRDEYRAAQTARKEALAAEAEDIAANSTQWKAAGDRLREILDEWRTITGLERKADDALWKRYSAARETFNRRRGSHFAELDRSRVSARQAKEELCERAEALADSTDWGATSAAFRDLLAEWKAAGRAAKDVDDALWQRFKAAQDTFFSARNAAHAERDAEFKANAAAKEALLAEAEKIDLSDNEAARAALRVIGEKWDAIGKVPRERAAELERRLRAIEKKIREAPTGGVDPEAKARADQFRARAEQFERQAEKAEAAGRTKDAEEARASAAQWRQWAEAAAESLEKRR		
